Test results published in the DeepSol protein solubility set.

experiment: soluble on expression in E. coli; label from the status in PepcDB or PDB records

| Sequence | soluble on expression in E. coli |
| --- | --- |
| ADLLSKFDPLIAEREALLATGVRDPYAIVMDKVLSPTEAMINGRKTILLGTYNYMGMTFDPDVIAAGKQALDEFGSGTTGSRVLNGTYQGHKACEDALKEFYGTEHAIVFSTGYQANLGMISTLAGKGDYIILDADSHASIYDGCWLGDAEIVRFRHNSVEDLDKRLGRLPAEAGKLVVLEGVYSMMGDIAPLQEMVAVSKKHGAMILVDEAHGMGFFGEHGRGVFEEAGVEADVDFVVGTFSKSVGTVGGFCVSNHPKFEVLRLVCRPYVFTASLPPSVVATAATSIRKLMHAGDKRAHLWKNSRRLHQGLRDMGYKLGTETAQSAIIAVILTDMAQAVALWQGLLEAGLYVNTARPPATPAGMFLLRCSLCAEHSDEQVEQILGMFESAGRATGVIPKLAAALEHHHHHH | soluble |
| MSVKISGKDYAGMYGPTKGDRVRLADTDLIIEIEEDYTVYGDECKFGGGKSIRDGMGQSPSAARDDKVLDLVITNAIIFDTWGIVKGDIGIKDGKIAGIGKAGNPKVMSGVSEDLIIGASTEVITGEGLIVTPGGIDTHIHFICPQQIETALFSGITTMIGGGTGPADGTNATTCTPGAFNIRKMLEAAEDFPVNLGFLGKGNASFETPLIEQIEAGAIGLKLHEDWGTTPKAIDTCLKVADLFDVQVAIHTDTLNEAGFVENTIAAIAGRTIHTYHTEGAGGGHAPDIIKIASRMNVLPSSTNPTMPFTVNTLDEHLDMLMVCHHLDSKVKEDVAFADSRIRPETIAAEDILHDMGVFSMMSSDSQAMGRVGEVIIRTWQTAHKMKLQRGALPGEKSGCDNIRAKRYLAKYTINPAITHGISQYVGSLEKGKIADLVLWKPAMFGVKPEMIIKGGFIIAGRMGDANASIPTPQPVIYKNMFGAFGKAKYGTCVTFVSKASLENGVVEKMGLQRKVLPVQGCRNISKKYMVHNNATPEIEVDPETYEVKVDGEIITCEPLKVLPMAQRYFLF | not soluble |
| MSLKRKIETFLAKWKKSEDRKPLVIKGIRQCGKTYIVQKFAKENYESVVYMNFILEPDKKSAFTGNIDVDTIILNLSALIQGSRFINGKTCIILDEIQECKEARTALKSFHIDGRFDVIATGSLLGVKGYDKSKKKKEEEEGQDSVPVGYETVIDMYPLDFEEFLWANGISDMVIDSVKSCFENESTVPDGIHKAMMELLYRYVIVGGLPEVVNCFLETKNIELIYKVQRNLIAEYEEDMVKYADDPDKPRIRECFESIPKQLAKENKKFQYSVVKKGGRASQYIGSIQWLEDAGIVRRCYNTQITELPLEGNSIKGSFKVYTTDIGILMAMLDYGTQADILKGNLLGYKGAIFENLMADFLCKSGQKLYYFHKDSGLELDFLVRFKGECVILEVKAKTGKAKSMTTVLKNKDVYYVNNAIKLGQYNVGCEGDILTIPLYMGFLVEDKLADVIIPDVDVSLLTTIEGHHHHHH | soluble |
| MSLSQLFIVYLGGSAPKANIELHDVQFVIADNIEGTYEQLRQNWFGTVKDLHLDSYKAVKGADGYQISIQDKPQNSDKKLYFVNLGGYDASKLNELHEFALFVAADNTEAKEKAKQSLLKNSLHQHKDNLMEVDDCLELSKVDGKYIHLTPSDKEYDLKPYWFGYRVIGEGHHHHHH | soluble |
| MEILNQFSQFSPNMEAQGASSIPQPSQDAHEKARQQAENQETAKNGMISQILDQAAMQRLSNLAVAKPEKAQMVEAALINMARRGQLSGKMTDDGLKALMERVSAQTQKATSVKFDRRRNELDSDEELDL | not soluble |
| MSLTGNAQAATIADPSTLVVDTVGPVLTIGLNRPKKRNALNDGLMAALKDCLTDIPDQIRAVVIHGIGDHFSAGLDLSELRERDATEGLVHSQTWHRVFDKIQYCRVPVIAALKGAVIGGGLELACAAHIRVAEASAYYALPEGSRGIFVGGGGSVRLPRLIGVARMADMMLTGRVYSAAEGVVHGFSQYLIENGSAYDKALELGNRVAQNAPLTNFAVLQALPMIAEANPQTGLLMESLMATVAQSDQEAKTRIRAFLDHKTAKVREGHHHHHH | soluble |
| MSITYSAISFSGFSPKSVPFAIHSVTRRQFLNPNTFYRFGFSPSLQGSSIEFSLQLNSRVVLSKERRSLPLVVRNDRPQNEDLPKQYTRREKKPFPVPIVDLRRAARERVKNNKDKPKRPLPPPKNGMVVKSLVPLAYKVYNARIRLINNLHRLMKVVRVNACGWCNEIHVGPYGHPFKSCKGPNTSQRKGLHEWTNSVIEDVIVPLEAYHLFDRLGKRIRHDERFSIPRVPAVVELCIQGGVEIPEFPAKRRRKPIIRIGKSEFVDADETELPDPEPQPPPVPLLTELPVSEITPPSSEEETVSLAEETLQAWEEMRAGAKKLMRMYRVRVCGYCPEVHVGPTGHKAQNCGAFKHQQRNGQHGWQSAVLDDLIPPRYVWHVPDVNGPPMQRELRSFYGQAPAVVEICAQAGAVVPEHYRATMRLEVGIPSSVKEAEMVV | soluble |
| MADFARSLSITTPEEMIEKAKGETAYLPCKFTLSPEDQGPLDIEWLISPADNQKVDQVIILYSGDKIYDDYYPDLKGRVHFTSNDLKSGDASINVTNLQLSDIGTYQCKVKKAPGVANKKIHLVVLVK | soluble |
| MRKGINMTAELLVNVTPSETRVAYIDGGILQEIHIEREARRGIVGNIYKGRVSRVLPGMQAAFVDIGLDKAAFLHASDIMPHTECVAGEEQKQFTVRDISELVRQGQDLMVQVVKDPLGTKGARLTTDITLPSRYLVFMPGASHVGVSQRIESESERERLKKVVAEYCDEQGGFIIRTAAEGVGEAELASDAAYLKRVWTKVMERKKRPQTRYQLYGELALAQRVLRDFADAELDRIRVDSRLTYEALLEFTSEYIPEMTSKLEHYTGRQPIFDLFDVENEIQRALERKVELKSGGYLIIDQTEAMTTVDINTGAFVGHRNLDDTIFNTNIEATQAIARQLRLRNLGGIIIIDFIDMNNEDHRRRVLHSLEQALSKDRVKTSVNGFSALGLVEMTRKRTRESIEHVLCNECPTCHGRGTVKTVETVCYEIMREIVRVHHAYDSDRFLVYASPAVAEALKGEESHSLAEVEIFVGKQVKVQIEPLYNQEQFDVVMM | not soluble |
| MSENLTMSELMDSFELKHFHKGEIVKGKVISVKNDEIIVNIGHFADGVVPRNEISNDKNFDINSINVDDDIFVMVLSGDDGEGNVLLSKKRADAIKVCDDLKEAFEEEKSIKVSLKEVVKGGIVGDFNGLRVFMPASQCAGRRIENLEELVGKTLEVRVIEFNKENRKVVVSRRVIDEEIRNNEKKALWSSIKEGEKRKGKVTRLAKFGAFVDIGGVEGLVHLSDMSWSRVHKPEEVVSVGDEVEVFVSEVDMDRERIALSLKDVIKNPWETLEGLKVGNVVLGKVTNFIKVGAFVEVLPGIEGLVHISEITDENIAKPSDILELGQEVKVKILNIDDENKKMSLSIKDAVETSNEYMQYNDEEEGYSLADLFKGLNLLEHHHHHH | soluble |
| MGSDKIHHHHHHMDVDLGKLFFCGFNDFNEEVKEIIRKYRPTGILIYPGVLSKEYLLMDFMSFLSKEGDFLISSDHEGGQLEVLKYVPSSPGNLAFGKNSPDVTYRYSRVAGKIMEIVGLNMVFAPVLDLLSEESSSVIDIRSYGSDPKIVAEHGARACEGYLEGGVIPCIKHFPGHGKAREDSHLTLPVVDAPFEKLWEEDLLPFRKVLEREKKVTVMTAHVRYSSIDSLPATLSEKIITDVLREKIGFDGLVISDAMEMSAVSNNFSVEEIVSLFLNAGGNMILLGDYRNLPVYYETLVKLLEDGKVQKDKVERSIRTVEKYLAFAKKNSGVGFLADVSMKAVEFLGFEKIDHTSEVTLLVPSSENLSQADTTGGDYDQIPEIVSRFFEVENVVRYTVEDGPEFVEGDLIFDFVADIPNEKALKAHLSLPAEKTVYFVLRNPFDVRYFEGRKIVVTRSTKPISIYKSLEHFLGRCDS | not soluble |
| MKRRLLCALLASTLAQPLTVRADLPDLGEISDASLSLSDEARIGRDALRAMREAGDVVDDPEVNAYLNDVGGRLAAAAAVPGVRFTYFCVADAGINAFAMPGGYVGINIGLMLASQSEGELAAVLGHETAHVAQRHIARMQAANSAASPLLLLGTIVAAALAAKAGSGDGAMGAVSAGMGLSISRQLAFSRDFEREADRVGMQYMSAAGFDVRNMAAFFQRLEQASRYSDNTAYAFLRTHPVTLERISEAQNRALDYPVRMRADSVDYLLVREKLRVLTLSPEEAVSHYSSALQRGLYLNEGANWYGLARAKLLQHDRAGASEALAKARAKLPDNPMLYGLEVEIARDGRDWAAAARAARNGLSAFPRSVSLQLAQLDVALDGGDRKAAQAQLRQLLDSRRDDPALYRREAKLYADKDPLRYHAALGNAFYYEQRYGAALEQYQLAGKAKGDDFYLRSMLEARLREVEKLAKEERKAARNLEHHHHHH | soluble |
| MAHHHHHHMQRWPCRRCCRAATLGSRTFVLVRRRAPSAFITTASHASSGAAPPWTVAHQRVCIIIPPVEKLTTPPSPRLSRRYVDSQTLDDSRTQQADAQEPDHFRFAIKNSERGLLDHGVTPDAIAFIAEAEEEYRASSSYLHDRPGGAGMPESETHVDEVTGQQTTTTRIAAPFGETYVPSNRERFAERQRVGELSRQLNLVDKPFMLDEHAQLNLRKERQLCELLASPMPQLAKADEVAHFLLNGVYAQNLALQPRSCESVMLLYSHASFLRRLEGPTKQLTGRAHDAARLAAPSSGADTRAVPRTPQDVPFLDDMRRLYTHQKRCFISPTPLSLEHFMTTLSVITAPSTTAFHLANRLLLDADKFVLLPTRTTYTAYFTVCHVNNAMQFAMARYTDAVQALQLPVDAPMLTALLKGLNESGYVEEAVSLLSRIGHVAVSTPLLNASLETLLLSEQALACFSLYDAMRGSSVKPNAETYTLLLLACEKSQQWRRVTAILAEMQRRRVRGNEQTLNLLLKGLLQERLHSYAAQLYHTMLAKKVPLWPALELGVRPLLR | not soluble |
| MGSSHHHHHHGGTGENLYFQGGSGLLMRSSSPAATVQATHQRVQSAQERHVRREYASDVNTPRALSVRSSRGGSFAFAPQVQEKYNTMNILVLGAPQVGKSLFINSYRAAITNTTRWPAAPVGISGFYGTTTVAPFPNHARQPTWLCIDTPGSLYTEKHAVLLEKLTEGMPWKTKLKGPNALTLRQIKDISPIAANKAHQCIIVVPATDLIEDDGLINTLLWRNRYRPAGGVADIIFYLKGLISSLRTLMDDASPFVVVTKMDKVGGARNSSACAALVSILGQCVPVNHVYFTAAVENRALLATGRTMVLESSTKQNLVRLHEDICLAVQWRNQVDAM | not soluble |
| MGSDKIHHHHHHMDKIYVLDTNVLLQDPLSIFSFETNEVVIPAVVLEEVDSKKRYMDEVGRNARYVSKLIDKFREIGKLHESIPLENGGTFRIELNHRSFVQLQDIFVEKTNDNRILAVAKNLSLEEQEKEDGKSVILVSKDVLVRVKADAIGLKAEDYLSDRVIEVENIYSGFLEGYISKEQLDYFYEKGELPLSEIANHPFYPNQFVVMKDALGGSSSALGIVDHLGKKVKKLIFHNEQVWGIRPRNVQQIMGLELLLREDIPLVTLTGKAGTGKTLLALASGLMQTEDLGLYKKLLVARPIVPVGKDIGYLPGEKEEKLRPWMQPIFDNLEYLFNTKKPGELDAILAGMGSIEVEALTYIRGRSIPDQFIIIDEAQNLTKHEVKTILTRVGEKSKIVLMGDPQQIDHPYLDEYNNGLTYVVEKFKEQRISGHVKFVKGERSNLAQLAADLL | not soluble |
| MKHYLAIDIGGTAIKYGLISETGDLLEKEEMATEAYKGGPSILEKVKGLVKTYQDQMDLAGVAISSAGMVNPDEGEIFYAGPQIPNYAGTQFKKEIEETFGLPCEVENDVNCAGLAEAISGSAKDYPVALCLTIGTGIGGCLLFNSQVFHGSSHSACEVGYLHLSDGQFQDLASTTALVQEVVLAYGDDISQWDGRRIFEQAKAGDAICIAAISKQVDYLGQGIANICYVVNPNVVVLGGGIMAQKDYLADKLKTALDSYLVSSLAKKTQLKFASHGNNAGILGAYYHFKQKNERSCSFITLEKIENNLASS | not soluble |
